Experimental data published in US20250179160A1 (OMEROS, published 2025).
Where two headings read alike, the source gives them in different places.

Legend:
[1] = target: T1, recombinant human mature Factor D-His (human, UniProt P00746 26-253); assay: ELISA: antibody titrated from 3 ug/ml on 1 ug/ml plate-immobilized His-tagged Factor D; labeled goat anti-mouse IgG Fc; OD450
T1 construct: also called recombinant human mature CFD-His; not shown: His tag

[2] = target: T2, recombinant human Pro-Factor D-His (human, UniProt P00746 20-253); assay: as above
T2 construct: also called recombinant human Pro-CFD-His; not shown: His tag

[3] = target: T3, recombinant human Pro-Factor D (human, UniProt P00746 20-253); assay: capture ELISA: recombinant Factor D captured by plate-bound goat polyclonal AF1824; hybridoma supernatant diluted two-fold; OD450
T3 construct: also used for the endogenous pro-Factor D detected in 3MC patient serum; also called pro CFD; hPro-CFD
Method: Hybridoma supernatants were first screened for binding to immobilized recombinant human mature Factor D-His. […] ELISA plates were coated with polyclonal anti-human factor D antibody AF1824 (R&D Systems). Hybridoma supernatants were diluted two-fold in PBS, 0.05% Tween 20 (PBST). Supernatant from NS-1 myeloma cell line (NS-1 sup) was included as a matrix control to determine the level of assay background.

[4] = target: T4, recombinant human mature Factor D, Strep tagged (human, UniProt P00746 26-253); assay: ELISA with hybridoma supernatant on immobilized antigen
T4 construct: also called recombinant human mature CFD-Strep tagged; recombinant human mature Factor D-Streptavidin; not shown: Strep tag

[5] = target: T3, recombinant human Pro-Factor D; assay: ELISA: antibody titrated 3-fold from 3 ug/ml on plate coated with 1 ug/ml recombinant human pro-Factor D; HRP anti-mouse, rat or human secondary; OD450
[6] = target: T5, recombinant human mature Factor D (human, UniProt P00746 26-253); assay: ELISA: antibody titrated 3-fold from 3 ug/ml on plate coated with 1 ug/ml recombinant human mature Factor D; HRP anti-mouse, rat or human secondary; OD450
T5 construct: also called mature CFD; hCFD

[7] = target: T3, recombinant human Pro-Factor D; assay: sandwich ELISA: coat 21H1 (human IgG4) 1 ug/ml, recombinant human pro-Factor D spiked into diluent and titrated, detection biotin goat polyclonal BAF1824 and HRP-streptavidin; OD450
Method: Controls of no additional Factor D in sera were treated similarly (unspiked). Assay wells were incubated for 1 hour at room temperature then washed three times with PBST. […] After incubation and washing, HRP-tagged Streptavidin was added, incubated, and washed, followed by TMB substrate.

[8] = target: T1, recombinant human mature Factor D-His; assay: ELISA: antibody titrated from 3 ug/ml on 1 ug/ml plate-immobilized His-tagged Factor D; labeled goat anti-mouse IgG Fc; OD450; remark: listed apart in the source
Method: (§1) The candidate antibodies were titrated starting at 3 μg/mL antibody binding to 1 μg/mL plate-immobilized recombinant human mature Factor D-His or recombinant human Pro-Factor D-His proteins. Bound antibodies were detected by a labeled goat polyclonal antibody specific for mouse IgG Fc (Jackson ImmunoResearch).

[9] = target: T2, recombinant human Pro-Factor D-His; assay: as above; remark: listed apart in the source
Method: as §1

| EC50 (read off the curve) [5] [µg/mL] | binding result [6] | further results | Binder |
| --- | --- | --- | --- |
| – | – | EC50 (read off the curve) [1]: ~0.06 µg/mL; EC50 (read off the curve) [2]: ~0.04 µg/mL | 3C5, recombinant purified, mouse IgG2a Fc (antibody, Mouse IgG2a and mouse kappa constant regions) heavy: EVKLVESGGGLVQPGGSLKLSCATSGFTFSDYGMAWVRQAPGKGPEWVAFISNLAYSFYYVDIVMGRFTISRENAKNTLYLEMSSLRSEDTAMYYCARVGLYGNFFMDYWGQGTSVTVSSAKTTAPSVYPLAPVCGDTTGSSVTLGCLVKGYFPEPVTLTWNSGSLSSGVHTFPAVLQSDLYTLSSSVTVTSSTWPSQSITCNVAHPASSTKVDKKIEPRGPTIKPCPPCKCPAPNLLGGPSVFIFPPKIKDVLMISLSPIVTCVVVDVSEDDPDVQISWFVNNVEVHTAQTQTHREDYNSTLRVVSALPIQHQDWMSGKEFKCKVNNKDLPAPIERTISKPKGSVRAPQVYVLPPPEEEMTKKQVTLTCMVTDFMPEDIYVEWTNNGKTELNYKNTEPVLDSDGSYFMYSKLRVEKKNWVERNSYSCSVVHEGLHNHHTTKSFSRTPGK light: DIQMNQSPSSLSASLGDTITITCHASQNINVWLSWYQQKPGNIPELLIYKASNLHTGVPSRFSGNRSGTSFTLTISSLQPEDIGTYFCQQGQSYPLTFGAGTKLELRRADAAPTVSIFPPSSEQLTSGGASVVCFLNNFYPKDINVKWKIDGSERQNGVLNSWTDQDSKDSTYSMSSTLTLTKDEYERHNSYTCEATHKTSTSPIVKSFNRNEC |
| – | – | binding result [3]: no binding | 27B3, hybridoma supernatant (antibody, V domains shown, Mouse hybridoma antibody) VH: QVTLKESGPGILQSSQTLSLTCSFSGISLNISGMGVSWIRQPSGKGLEWLAHIYWDDEKHYNPSLKRRLTISKDASRNQVFFRISSVDSADTATYYCALRYYGYGSIMDYWGHGTSVTVSS VL: DVLMTQTPLSLPVSLGDQASISCRSSQSIVHSNGNTYFEWYLQKPGQSPKLLIYKVSNRFSGVPDRFSGSGSGTDFTLKISRVEAEDLGVYYCFQGSHVPPTFGGGTKLEIKR |
| – | – | binding result [4]: binds | 11H1, hybridoma supernatant (antibody, V domains shown, Mouse hybridoma antibody) VH: EVQLVESGGGLVQPKGSLKLSCAASGFSFNTYAMNWVRQAPGKGLEWVARIRSKSNNYATHYADSVKDRFTISRDDSESMLYLQMNNLKTEDTAMYYCVRQGYYWYFDVWGTGTTVTVSS VL: DVLMTQTPLSLPVSLGDQASISCRSSQSIVHSNGNTYLEWYLQKPGQSPKLLIYTVSNRFSGVPDRFSGSGSGTDFTLKISRVEAEDLGVYYCFQGSHVPWTFGGGTKLEIKR |
| – | – | binding result [4]: binds | 7H2, hybridoma supernatant (antibody, V domains shown, Mouse hybridoma antibody) VH: EVQVVESGGGLVRPKGSLKLSCAASGFSFNTYAMNWVRQAPGKGLEWVARIRSKSNNYATYYADSVKDRFTISRDDSESMLSLQMNNLKTEDTAMYYCVRQGYYWYFDVWGTGTTVTVSS VL: DVLMTQTPLSLPVSLGDQASISCRSSQSIVHSNGNTYLEWYLQKPGQSPKLLIYTVSNRFSGVPDRFRGSGSGTDFTLKISRVEAEDLGVYYCFQGSHVPWTFGGGTKLEIKR |
| ~0.03 | no binding (tested: 3 ug/ml) | – | 18F5, purified recombinant, human IgG4 (antibody, V domains shown, Mouse variable regions on human IgG4 (S228P) and human kappa constant regions) VH: EVKLEESGGGLVQPGGSMKLSCVASGFTFGNYWMSWVRQSPEKGLEWVAEIRLKSDNYATHYAESVKGKFTISRDDSKSRLYLQMNSLRGEDTGLYYCTNAWFASWGQGTLVTVSA VL: DIVMSQSPSSLAVSVGEKVTMSCMSSQSLLYSKDQKNYLAWYQQKPGQSPKLLIYWASTRESGVPDRFTGSGSGTDFTLTISSVKAEDLAVYYCLQYYTYPYTFGGGTKLEIKR |
| ~0.03 | no binding (tested: 3 ug/ml) | – | 2A4, purified recombinant, human IgG4 (antibody, V domains shown, Mouse variable regions on human IgG4 (S228P) and human kappa constant regions) VH: EVKLEESGGGLVQPGGSMKLSCVASGFTFSTYWMSWVRQSPEKGLEWVAEIRLKSDNYATHYTESVKGKFTISRDDSKSRLYLQMNSLRVEDTGIYYCTNAWFAYWGQGTLVTVSA VL: DIVMSQSPSSLAVSVGEKFTMSCKSSQSLLYSRDQKNYLAWYQQQPGQSPKLLIYWASTRESGVPDRFTGSGSGTDFTLTISSVKTEDLAVYYCLQYYSYPYTFGGGTKLEIKR |
| ~0.02 | no binding (tested: 3 ug/ml) | EC50 (read off the curve) [7]: ~0.004 µg/mL | 21H1, purified recombinant, human IgG4 Fc (antibody, V domains shown, Mouse variable regions on human IgG4 (S228P) and human kappa constant regions; also called mAb 21H1; anti-pro Factor D-specific antibody 21H1) VH: DVQLQESGPGLVKPSQSLSLTCTVTGYSITSDYAWNWIRQFPGNKLEWMGYISYSGSTGYSPSLKSRISITRDTSKNQFFLHLNSVTTGDTATYYCARNGAMDYWGQGISVTVSS VL: DIVLTQSPASLAVSLGQRATISCKASQSVDYDGDSYMNWYQQKPGQPPKLLIYDASTLESGIPARFSGSGSGTDFTLNIHPVEEEDAATYYCQQNYEAPWTFGGGTKLEIKR |
| ~0.02 | no binding (tested: 3 ug/ml) | – | 13A10, purified recombinant, human IgG4 (antibody, V domains shown, Mouse variable regions on human IgG4 (S228P) and human kappa constant regions) VH: DVQLQESGPGLVKPSQSLSLTCTVTGYSITSDYAWNWIRQFPGNKLEWMGYISYIGGIGYNPSLKSRISITRDTSKNQFFLHLNSVTTGDTATYYCARNGAMDFWGQGISVTVSS VL: DIVLTQSPASLAVSLGQRATISCKASQSVDYDGDSYMNWYQQKPGQPPKLLIYDASNLESGIPARFSGSGSGTDFTLNIHPVEEEDAATYYCQQSNEAPWTFGGGTKLEIKR |
| – | – | EC50 (read off the curve) [8]: ~0.04 µg/mL; EC50 (read off the curve) [9]: ~0.02 µg/mL | 12H10, recombinant purified, mouse IgG2a Fc (antibody, Mouse IgG2a and mouse kappa constant regions) heavy: EVQLVESGGGLVQPKGSLKLSCAASGFSFNTYAMNWVRQAPGKGLEWVARIRSKSNNYATYYADSVKDRFTISRDDSESMLYLQMNNLKTEDTAMYYCVRHGYYWYFDVWGTGTTVTVSSAKTTAPSVYPLAPVCGDTTGSSVTLGCLVKGYFPEPVTLTWNSGSLSSGVHTFPAVLQSDLYTLSSSVTVTSSTWPSQSITCNVAHPASSTKVDKKIEPRGPTIKPCPPCKCPAPNLLGGPSVFIFPPKIKDVLMISLSPIVTCVVVDVSEDDPDVQISWFVNNVEVHTAQTQTHREDYNSTLRVVSALPIQHQDWMSGKEFKCKVNNKDLPAPIERTISKPKGSVRAPQVYVLPPPEEEMTKKQVTLTCMVTDFMPEDIYVEWTNNGKTELNYKNTEPVLDSDGSYFMYSKLRVEKKNWVERNSYSCSVVHEGLHNHHTTKSFSRTPGK light: DVLMTQTPLSLPVSLGDQASISCRSSQSIVHSDGNTYLEWYLQKPGQSPKLLIYRVSNRFSGVPDRFSGSGSGTDFTLKISRVEAEDLGVYYCFQGSHVPYTFGGGTKLEIKRADAAPTVSIFPPSSEQLTSGGASVVCFLNNFYPKDINVKWKIDGSERQNGVLNSWTDQDSKDSTYSMSSTLTLTKDEYERHNSYTCEATHKTSTSPIVKSFNRNEC |
